Results from patent US20240207432A1 (BIOSION, published 2024).
Changes are numbered by the printed parent chain.

Assays:
[1] = target: T1, human TROP2-his protein (human, UniProt P09758 27-274); test: competitive ELISA: mouse A1E11A12D1 coated at 2 ug/mL, antibody premixed with biotin human TROP2-his; blocked: binding of TROP2-his to coated A1E11A12D1
T1 construct: Biotin-labelled in the ELISAs, unlabelled analyte in Biacore; also called biotin-labeled human TROP2-his protein; biotin human Trop2-his
T1 sequence: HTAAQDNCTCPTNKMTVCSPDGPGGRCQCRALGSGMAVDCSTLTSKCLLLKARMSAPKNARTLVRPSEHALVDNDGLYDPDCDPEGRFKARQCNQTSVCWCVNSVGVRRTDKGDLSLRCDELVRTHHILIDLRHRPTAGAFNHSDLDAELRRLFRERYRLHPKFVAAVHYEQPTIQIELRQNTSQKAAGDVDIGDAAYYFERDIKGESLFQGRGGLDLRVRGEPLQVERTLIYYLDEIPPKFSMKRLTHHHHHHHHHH
Method: (§1) The mouse anti-TROP2 antibodies were tested for epitope binding in a competitive ELISA assay. […] ELISA plates were washed once with wash buffer (PBS+0.05% v/v Tween-20, PBST) and then blocked with 200 μl blocking buffer (5% w/v non-fatty milk in PBST) for 2 hours at 37° C. While blocking, the anti-TROP2 antibodies or controls were diluted with biotin labeled human TROP2-his protein (SEQ ID NO: 67, 34 ng/mL in 2.5% wA non-fatty milk in PBST), starting at 80 nM with a 5-fold serial dilution, and incubated at room temperature for 40 minutes. After plate washing for 4 times, the antibody/TROP2-his protein mixtures were added to the antibody coated plates, 100 μl per well. After incubation at 37° C. for 40 minutes, plates were washed 4 times again using wash buffer. Then the plates were added and incubated with 100 μl Peroxidase Streptavidin (1:10000 dilution in PBST buffer. Jackson Immunoresearch, Cat #016-030-084) for 40 minutes at 37° C. Plates were washed again using wash buffer. Finally, TMB was added and the reaction was stopped using 1M H₂SO₄. The absorbance of each well was read on a microplate reader using dual wavelength mode with 450 nm for TMB and 630 nm as the reference wavelength, and the OD (450-630) values were plotted against antibody concentration. Data was analyzed using Graphpad Prism software and IC₅₀ values were reported.

[2] = target: T1, human TROP2-his protein; test: competitive ELISA: mouse A1E4F7D4 coated at 2 ug/mL, antibody premixed with biotin human TROP2-his; blocked: binding of TROP2-his to coated A1E4F7D4 (self-competition)
Method: as §1

[3] = target: T1, human TROP2-his protein; test: competitive ELISA: mouse A1E11A12D1 coated at 2 ug/mL, antibody premixed with biotin human TROP2-his; blocked: binding of TROP2-his to coated A1E11A12D1 (self-competition)
Method: as §1

[4] = target: T1, human TROP2-his protein; test: competitive ELISA: mouse A1E4F7D4 coated at 2 ug/mL, antibody premixed with biotin human TROP2-his; blocked: binding of TROP2-his to coated A1E4F7D4; no lower plateau reached at 80 nM
Method: as §1

[5] = target: T1, human TROP2-his protein; test: capture ELISA, captured antibody, biotin human TROP2-his in solution, OD(450-630)
Method: (§2) Plates were washed once with wash buffer (PBS+0.05% v/v Tween-20, PBST) and then blocked with 200 μl/well blocking buffer (5% w/v non-fatty milk in PBST) for 2 hours at 37° C. […] Plates containing captured anti-TROP2 antibodies were incubated with biotin-labeled human TROP2-his protein (prepared in house, SEQ ID NO: 67, 56.7 ng/mL in 2.5% w/v non-fatty milk in PBST, 100 μl/well) for 40 minutes at 37° C., washed 4 times, and incubated with streptavidin conjugated HRP (1:10000 dilution in PBST, Jackson Immuno Research, Cat #016-030-084, 100 μl/well) for 40 minutes at 37° C. After a final wash, plates were incubated with 100 μl/well ELISA substrate TMB (Innoreagents, Cat #TMB-S-002) at room temperature. The reaction was stopped in 3-10 minutes at room temperature with 50 μl/well 1M H₂SO₄, and the absorbance of each well was read on a microplate reader using dual wavelength mode with 450 nm for TMB and 630 nm as the reference wavelength. The OD (450-630) values were plotted against antibody concentration. Data was analyzed using Graphpad Prism software and EC₅₀ values were reported.

[6] = target: T1, human TROP2-his protein; test: competitive ELISA: BM1 coated at 1 ug/mL, antibody premixed with biotin human TROP2-his; blocked: binding of TROP2-his to coated BM1 (self-competition)
Method: as §1

[7] = target: T1, human TROP2-his protein; test: capture ELISA, antibody captured on anti-human IgG Fc coat, biotin human TROP2-his in solution, OD(450-630)
Method: as §2
(§3) For the capture ELISA, AffiniPure Goat Anti-Human IgG, Fcγ fragment specific (Jackson Immuno Research, Cat #109-005-098) was used instead of AffiniPure Goat Anti-Mouse IgG, Fcγ fragment specific, 100 μl/well.

[8] = target: T1, human TROP2-his protein; test: competitive ELISA: BM1 coated, antibody premixed with biotin human TROP2-his; blocked: binding of TROP2-his to coated BM1 (self-competition), OD falls from about 1.9 to about 0.05
[9] = target: T1, human TROP2-his protein; test: capture ELISA, antibody captured on anti-human IgG Fc coat, biotin human TROP2-his in solution, OD(450-630); remark: listed apart in the source
Method: as §2, §3

[10] = target: T1, human TROP2-his protein; test: SPR Biacore, compared with BM2
[11] = target: T1, human TROP2-his protein; test: SPR Biacore, human TROP2-his analyte

B1: mouse antibody A1E4F7D4 (antibody, V domains shown)
VH: QVQLQQSGAELAKPGTSVKMSCEASGYSFTTHWIHWMKQRPGQGLEWIGTIFPSNAYAVYNQKFRDRAIMTADRSSTTAYIQLTGLTSEDSAVYYCARASYFDYWGQGTTLTVSS
VL: DILLTQSPATLSVSPGERVTFSCRASQNIGTSIHWFQQRTTGSPRLLIKYASESISGIPSRFSGSGSGTDFTLHINSVESEDIAHYYCQHSHSWPFTFGSGTKLEIQ
notes: Mouse monoclonal IgG purified from hybridoma supernatant; also called Mouse A1E4F7D4
[1]
  IC50: 0.584 nM
[2]
  IC50: 0.0675 nM

B2: mouse antibody A1E11A12D1 (antibody, V domains shown)
VH: QVQLQQSGAELARPGASVKLSCMASGYTFTTYGISWVRQRTGQGLEWIGQIYPGSDYSYCDEDFKGKATLTADKSSSTAYMQLSSLTSEDSAVYFCARASYFDYWGQGTTLTVSS
VL: DILLTQSPAILSVSPGERVSFSCRASQTIGTAIHWYQQRANGSPRLLIKYASESISGIPSRFSGSGSGTDFALSINTVESEDFAYYYCQQSNNWPFTFGGGTKLEIR
notes: Mouse monoclonal IgG purified from hybridoma supernatant
[3]
  IC50: 1 nM

B3: mouse antibody A1H3C5H8E12 (antibody, V domains shown)
VH: QVQLQQSGAELVRPGTSVKMSCKAAGYTFTNYWIDWVKQRPGHGLEWIGNIFPGGFYTNYNEKFKGKATLTADTSSSTAYMQLSSLTSEDSAIYYCARGGVFDYWGQGTTLTVSS
VL: B2 VL with T28S, A32S, A40T, A72T, T77S, F83I, Y85D, N93S, F96Y, R107K
notes: as for B2
[4]
  IC50: 4.09 nM

B4: benchmark (in house prepared sacituzumab) (antibody, human IgG1, kappa, V domains shown)
VH: SVQLQQSGSELKKPGASVKVSCKASGYTFTNYGMNWVKQAPGQGLKWMGWINTYTGEPTYTDDFKGRFAFSLDTSVSTAYLQISSLKADDTAVYFCARGGFGSSYWYFDVWGQGSLVTVSS
VL: DIQLTQSPSSLSASVGDRVSITCKASQDVSIAVAWYQQKPGKAPKLLIYSASYRYTGVPDRFSGSGSGTDFTLTISSLQPEDFAVYYCQQHYITPLTFGAGTKVEIKR
notes: also called BM; BM1
[5]
  EC50: 0.141 nM
[6]
  IC50: 0.632 nM
[7]
  EC50: 0.357 nM
[8]
  IC50: 0.88 nM
[9]
  EC50: 0.27 nM

B5: huA1E4F7D4-V16 (antibody, human IgG1, kappa, V domains shown)
VH: QVQLVQSGAEVKKPGASVKVSCKASGYSFTTHWIHWVRQAPGQGLEWIGTIFPSNAYAVYNQKFRDRATMTADTSISTAYIELSRLRSDDTAVYYCARASYFDYWGQGTTVTVSS
VL: EIVLTQSPATLSLSPGERATLSCRASQNIGTSIHWFQQKPGGAPRLLIKYASESISGIPSRFSGSGSGTDFTLTISSLEPEDFAVYYCQHSHSWPFTFGQGTKLEIKR
notes: Positions of the X residues are given in the claims; also called humanized antibody huA1E4F7D4-V16
[10]
  fold higher affinity than BM2: > 100 fold
[11]
  Kd: 0.196 nM
  koff: 7.92e-05 s⁻¹
  kon: 404000 M⁻¹ s⁻¹
